Like-named read-outs stand apart in the source and are kept apart here.
Experiments:
monomeric human CTLA-4 [1] = molecular target: T1, monomeric human CTLA-4 (human, UniProt P16410 36-161, limits assumed); assay: SPR, captured Fab, pH 6.0
T1 construct: Soluble monomeric analyte in SPR; also called huCTLA-4
T1 sequence: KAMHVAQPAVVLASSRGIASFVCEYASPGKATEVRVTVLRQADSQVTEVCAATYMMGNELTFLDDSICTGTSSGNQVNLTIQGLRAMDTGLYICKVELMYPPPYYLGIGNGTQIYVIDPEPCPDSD
Description: (§1) Binding of selected variants to human CTLA-4 was determined essentially as described in Example 3. […] Nomenclature and sequences for these antibodies is provided at Tables 6 and 7, and in the sequence listing as summarized at Table 8.
(§2) Monomeric human CTLA-4 was flowed as analyte with up to 2 μM top concentration. Between cycles, the capture surface was regenerated with 75 mM phosphoric acid. Experiments were run on a BIACORE® T200 instrument at 37° C. Running buffers were HEPES buffered saline for pH 7.4 experiments and Bis-Tris buffered saline for lower pH experiments. […] Double referenced sensorgrams were fitted to a 1:1 Langmuir binding model with mass transport to determine equilibrium dissociation constants (KD), as well as association (kₐ) and dissociation (kd) rate constants where appropriate.

monomeric human CTLA-4 [2] = molecular target: T1, monomeric human CTLA-4; assay: SPR, pH 6.0 and pH 7.5 (FIG. 6)
Description: (§3) Unless otherwise indicated, experiments were performed with a BIACORE® SPR surface plasmon resonance spectrometer (Biacore AB, Uppsala, Sweden). Antibodies were tested as monovalent Fab fragments to simplify analysis.
as §2

monomeric human CTLA-4 [3] = molecular target: T1, monomeric human CTLA-4; assay: SPR, captured Fab, pH 7.4
Description: as §1, §2

monomeric human CTLA-4 [4] = molecular target: T1, monomeric human CTLA-4; assay: SPR, captured Fab, pH 6.0 vs 7.4
Description: as §1, §2

[5] = molecular target: T2, human CTLA-4 on 58 α-β-CTLA-4/CD3 ζ cells (human; mouse (mCD3ζ)); assay: cell-based or functional assay
[6] = molecular target: T2, human CTLA-4 on 58 α-β-CTLA-4/CD3 ζ …; assay: flow cytometry, non-fucosylated IgG1 on 58αβ-CTLA4/mCD3ζ cells, pH 6.2
Description: (§4) Antibodies were titrated from 100 μg/mL at a 1:4 dilution across 12 points in pH-specific buffers and incubated for 30-60 minutes. Buffers contained HBSS, 2% FBS^HI, 0.02% sodium azide, 2 mM EDTA, and sodium phosphate buffer (pH 5.4). Sodium phosphate buffer was added until desired pH was reached (7.2, 6.7, 6.2). Approximately 3e5 cells/well were tested for each cell line. […] Detection was done with a monovalent anti-hKappa secondary nanobody conjugated to Alexa647 and used at a dilution of 1:2000. Cells were fixed with BD Fix Solution I for 30 minutes prior to resuspension in pH-specific buffers and reading on the cytometer (BD Fortessa).

[7] = molecular target: T2, human CTLA-4 on 58 α-β-CTLA-4/CD3 ζ …; assay: cell-based or functional assay; remark: listed apart in the source
[8] = molecular target: T2, human CTLA-4 on 58 α-β-CTLA-4/CD3 ζ …; assay: flow cytometry, non-fucosylated IgG1 on 58αβ-CTLA4/mCD3ζ cells, pH 6.7
Description: as §4

[9] = molecular target: T2, human CTLA-4 on 58 α-β-CTLA-4/CD3 ζ …; assay: cell-based or functional assay; remark: listed apart in the source
[10] = molecular target: T2, human CTLA-4 on 58 α-β-CTLA-4/CD3 ζ …; assay: flow cytometry, non-fucosylated IgG1 on 58αβ-CTLA4/mCD3ζ cells, pH 7.2
Description: as §4

monomeric human CTLA-4 [11] = molecular target: T1, monomeric human CTLA-4; assay: SPR, captured Fab, pH 6.0; remark: listed apart in the source
Description: as §3, §2

monomeric human CTLA-4 [12] = molecular target: T1, monomeric human CTLA-4; assay: SPR, captured Fab, pH 6.0 vs 7.4; remark: listed apart in the source
Description: as §3, §2

monomeric human CTLA-4 [13] = molecular target: T1, monomeric human CTLA-4; assay: SPR, captured Fab, pH 7.4; remark: listed apart in the source
Description: as §3, §2

Binder	Kd (monomeric human CTLA-4 [1])	kon (monomeric human CTLA-4 [1])	t1/2 (monomeric human CTLA-4 [1])	Kd (monomeric human CTLA-4 [3])	kon (monomeric human CTLA-4 [3])	t1/2 (monomeric human CTLA-4 [3])	KD 7.4/6 (APBP) (monomeric human CTLA-4 [4])	ka 6/7.4 (monomeric human CTLA-4 [4])	t1/2 6/7.4 (monomeric human CTLA-4 [4])	IC50 (read off the curve), mIL-2 secretion, 58αβ-hCTLA/mCD3ζ:rhB7-1 blocking assay, 18 h, pH 7.0 [5]	Cmax (MFI) [6]	EC50 [6]	IC50 (read off the curve), mIL-2 secretion, 58αβ-hCTLA/mCD3ζ:rhB7-1 blocking assay, 18 h, pH 7.2 [7]	Cmax (MFI) [8]	EC50 [8]	IC50 (read off the curve), mIL-2 secretion, 58αβ-hCTLA/mCD3ζ:rhB7-1 blocking assay, 18 h, pH 6.8 [9]	Cmax (MFI) [10]	EC50 [10]	further results
ipi.57 Fab (Fab, V domains shown, Tested as monovalent Fab; also called HCDR1 S31H) VH: QVQLVESGGGVVQPGRSLRLSCAASGFTFSHYTMHWVRQAPGKGLEWVTFISYDGNNKYYADSVKGRFTISRDNSKNTLYLQMNSLRAEDTAIYYCARTGWLGPFDYWGQGTLVTVSS VL: not shown	7.9 nM	1.1e+06 M⁻¹ s⁻¹	1.38 min	28 nM	800000 M⁻¹ s⁻¹	0.533 min	3.5	1.3	2.7	–	–	–	–	–	–	–	–	–	CAPBP (ratio of KD normalized to ipilimumab) (monomeric human CTLA-4 [2]): 5.5
ipi.1 Fab (Fab, V domains shown, Tested as monovalent Fab; also called T33H (Kabat)) VH: QVQLVESGGGVVQPGRSLRLSCAASGFTFSSYHMHWVRQAPGKGLEWVTFISYDGNNKYYADSVKGRFTISRDNSKNTLYLQMNSLRAEDTAIYYCARTGWLGPFDYWGQGTLVTVSS VL: not shown	7.7 nM	960000 M⁻¹ s⁻¹	1.57 min	8.6 nM	840000 M⁻¹ s⁻¹	1.6 min	1.1	1.1	1	–	–	–	–	–	–	–	–	–	Kd (monomeric human CTLA-4 [11]): 20 nM; koff (monomeric human CTLA-4 [11]): 0.011 s⁻¹; kon (monomeric human CTLA-4 [11]): 560000 M⁻¹ s⁻¹; KD 7.4/6 (APBP) (monomeric human CTLA-4 [12]): 1.2; Kd (monomeric human CTLA-4 [13]): 17 nM; koff (monomeric human CTLA-4 [13]): 0.011 s⁻¹; kon (monomeric human CTLA-4 [13]): 650000 M⁻¹ s⁻¹

The next lines start with results.

Kd (monomeric human CTLA-4 [1])	kon (monomeric human CTLA-4 [1])	t1/2 (monomeric human CTLA-4 [1])	Kd (monomeric human CTLA-4 [3])	kon (monomeric human CTLA-4 [3])	t1/2 (monomeric human CTLA-4 [3])	KD 7.4/6 (APBP) (monomeric human CTLA-4 [4])	ka 6/7.4 (monomeric human CTLA-4 [4])	t1/2 6/7.4 (monomeric human CTLA-4 [4])	IC50 (read off the curve), mIL-2 secretion, 58αβ-hCTLA/mCD3ζ:rhB7-1 blocking assay, 18 h, pH 7.0 [5]	Cmax (MFI) [6]	EC50 [6]	IC50 (read off the curve), mIL-2 secretion, 58αβ-hCTLA/mCD3ζ:rhB7-1 blocking assay, 18 h, pH 7.2 [7]	Cmax (MFI) [8]	EC50 [8]	IC50 (read off the curve), mIL-2 secretion, 58αβ-hCTLA/mCD3ζ:rhB7-1 blocking assay, 18 h, pH 6.8 [9]	Cmax (MFI) [10]	EC50 [10]	Binder	further results
–	–	–	–	–	–	–	–	–	~1 nM	121000 MFI	3.52 nM	~1 nM	126000 MFI	4.06 nM	~0.7 nM	124000 MFI	3.81 nM	ipi.101, non-fucosylated IgG1 (antibody, V domains shown, non-fucosylated N-linked glycan, Non-fucosylated full-length human IgG1; also called Ipi.101 IgG1-NF) VH: QVQLVESGGGVVQPGRSLRLSCAASGFTFSHYTMHWVRQAPGKGLEWVTFISYDGHNKYYADSVKGRFTISRDNSKNTLYLQMNSLRAEDTAIYYCARTGWLGPFDYWGQGTLVTVSS VL: not shown	–
–	–	–	–	–	–	–	–	–	~1 nM	122000 MFI	2.94 nM	~1 nM	126000 MFI	2.85 nM	~1 nM	125000 MFI	2.8 nM	ipi.100, non-fucosylated IgG1 (antibody, V domains shown, non-fucosylated N-linked glycan, Non-fucosylated full-length human IgG1; also called Ipi.100 IgG1-NF) VH: QVQLVESGGGVVQPGRSLRLSCAASGFTFSHYTMHWVRQAPGKGLEWVTFISYDGNNKYYADSVKGRFTISRDNSKNTLYLQMNSLRAEDTAIYYCARTGWLGPFDYWGQGTLVTVSS VL: not shown	–

Source: patent US20220193237A1 (Bristol-Myers Squibb, published 2022)
